In patent publication US20050182242A1, “Global analysis of protein activities using proteome chips” (priority 2001, published 2005):

Experiments:
Conditions in all cases: liposome binding signal on yeast proteome chip, Cy3-streptavidin detection
PI(3,4)P2 liposomes = experiment: Yeast proteome chip probed with PI(3,4)P2 liposomes
PI(4,5)P2 liposomes = experiment: Yeast proteome chip probed with PI(4,5)P2 liposomes
PI(3)P liposomes = experiment: Yeast proteome chip probed with PI(3)P liposomes
PI(4)P liposomes = experiment: Yeast proteome chip probed with PI(4)P liposomes
[1] = tested on: phosphatidylcholine (PC) liposomes; experiment: Yeast proteome chip probed with PC liposomes
How it was run: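 Sonicated liposomes in TBS, of phosphatidylcholine with 1% (w/w) biotin-DHPE plus 5% (w/w) of the named phosphoinositide (PC-only liposomes lacking it), were incubated on blocked chips of GST-RGS-His6-tagged yeast ORF proteins for 1 h at RT. Bound liposomes were detected with Cy3- or Cy5-streptavidin after PBS washes.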

PI(3,4,5)P3 liposomes = experiment: Yeast proteome chip probed with PI(3,4,5)P3 liposomes

Molecule	PI(3, 4)P2 (PI(3,4)P2 liposomes)	PI(4, 5)P2 (PI(4,5)P2 liposomes)	PI(3)P (PI(3)P liposomes)	PI(4)P (PI(4)P liposomes)	PC [1]	PI(3, 4, 5)P3 (PI(3,4,5)P3 liposomes)
MUB1: yeast GST-HisX6 fusion protein on proteome chip (protein, UniProt Q03162 1-620, looked up, GST-HisX6 tag, yeast GST-HisX6 fusion protein on proteome chip) MYND-type zinc finger protein …: MRDSNHRSLTSNKPIVTITSTVYDRRALDINSSIPLINSLNYLTYLTSNSSKVRETVANDGALERLVSILRSCHLSLFELLDLDLENFNEHENIKDLWKEKRLALCAWKWTLTFQCLVLTGTRGTEQIRKKVVMSGVLSVLVTVLDNYLLYHKNYDFIKDQTMTFDFKGITTETMYKFMRKDENETYQQYIEFITGQDKLKLSTDKNFLNERLVAPSMTIPTDFSDIWGRFADLASNFEPDQERHDDDIDIDSEVESENFDAHKNFFSQPDINRPTISTPREFFLGRIVPKQDDVIWSLQLLAFVSKYTYMKSTLQNVELVESLSFRSMAYKIKQRISEENDLEEQERDVTVKLSSLYPYLSKNPENNSKVKALDTSKMDPFFKELEELSNRCQQEEQNEICNNHCPVLNLFERYRVPKPSDDNAYGKDKERINLRKKISDNFERRWSYDKMKKELTNIVYKNKVLTNVVNIFPLVEKYTVSAENTHDVIYWSSVIMRNSCRKNEILGVRQCANFSCGKWEDFPRQFAKCRRCKRTKYCSRKCQLKAWGYHRYWCHEVGSSHMRSTNTTTGVNTPNEPSSLNATATTAADVSNSTSTFTPNISTTVPDEISNRDENSIPE	9.89	−4.79	−6.00	19.38	2.64	9.79
SPO1: yeast GST-HisX6 fusion protein on proteome chip (protein, UniProt P53541 18-631, looked up, GST-His6 tag, yeast GST-HisX6 fusion protein on proteome chip) Putative meiotic …: TAPFQVQCPSSPLIREAKHELCPEETLYLKKKKIKTKNKLIQFLKSLTEAKFSSKFYKRVLKDPPKIGIAISGGGYRSMLVGTGFISQMNDYGLFEYSDYIAGLSGGSWILMDLVVQNFEVKSLLQEWDLEEDLLLGIPEFDISEEEIVTNAKKEYNDNDLKMKKRQGGSLITSSSNFYEQIEEIMNSIEEIPEDYMITKRNLNPLARLKKIFFPNNTFTGTDAKIETFKKVLDFYKSLHLKIKPKKMEGFQISFTDYWGKAIVQRLKKNFDDDPNHSFSFSKLVNSSKKFKECSVPIPIFVANCKNGLLSNVIFEFTPFEFGSWENILRLFVKLPYLGSKIVSGKAEKCINNFDDLGFITATSSSIFNNVLIFIWNLASQSSREAMKALNMVMGIFGLGKEEIFSISKDSSRLETDYAVYQPNPFYLYPEKDNVLTNKNHLYLVDGGEDGENIPLRTLVIPERELDVIFVLDSSSDIDNYPNGSKLKRIFEKLDEENVHYQFPNNVKTFTHPIVIGCNATKRTGHDSFLPIIIYHANANHGNASNTSTFKITYNQSEVSSMLPTGRGVFSNDYDLYYKNCLGCILTKRTMDRLPRKKKFSPFCLQCFKDYCYS	18.99	14.37	−6.50	0.44	5.58	−9.22
BUD32: yeast GST-HisX6 fusion protein on proteome chip (protein, UniProt P53323 1-261, looked up, GST-His6 fusion tag, yeast GST-HisX6 fusion protein on proteome chip) EKC/KEOPS complex subunit …: MTQEFIDKVSSYLTPDVDIAPISQGAEAIVFTTTTHPYLPRAKDSHQKYIIKYRPPKRYRHPQIDQALTKHRTLNESRLLAKLYLIPGLCVPQLIACDPYNGFIWLEFLGEDLPGGHGFSNLKNFLWMHDQDPYSDLVATTLRKVGRQIGLLHWNDYCHGDLTSSNIVLVRDGARWTPHLIDFGLGSVSNLVEDKGVDLYVLERAILSTHSKHAEKYNAWIMEGFEEVYREQGAKGAKKLKEVTKRFEEVRLRGRKRSMLG	249.28	282.63	318.00	666.29	621.00	108.67
CAK1: yeast GST-HisX6 fusion protein on proteome chip (protein, UniProt P43568 1-368, looked up, GST-HisX6 tag, yeast GST-HisX6 fusion protein on proteome chip) Serine/threonine-protein …: MKLDSIDITHCQLVKSTRTARIYRSDTYAIKCLALDFDIPPHNAKFEVSILNKLGNKCKHILPLLESKATDNNDLLLLFPFEEMNLYEFMQMHYKRDRRKKNPYYDLLNPSIPIVADPPVQKYTNQLDVNRYSLSFFRQMVEGIAFLHENKIIHRDIKPQNIMLTNNTSTVSPKLYIIDFGISYDMANNSQTSAEPMDSKVTDISTGIYKAPEVLFGVKCYDGGVDVWSLLIIISQWFQRETSRMGHVPAMIDDGSDDMNSDGSDFRLICSIFEKLGIPSIQKWEEVAQHGSVDAFVGMFGADGDGKYVLDQEKDVQISIVERNMPRLDEIADVKVKQKFINCILGMVSFSPNERWSCQRILQELEKP	245.20	233.85	99.50	1431.44	854.02	269.10
VAC7: yeast GST-HisX6 fusion protein on proteome chip (protein, UniProt P53950 1-1165, looked up, GST-His6 tag, yeast GST-HisX6 fusion protein on proteome chip) Vacuolar segregation protein 7: MTEEDRKLTVETETVEAPVANNLLLSNNSNVVAPNPSIPSASTSTSPLHREIVDDSVATANTTSNVVQHNLPTIDNNLMDSDATSHNQDHWHSDINRAGTSMSTSDIPTDLHLEHIGSVSSTNNNSNNALINHNPLSSHLSNPSSSLRNKKSSLLVASNPAFASDVELSKKKPAVISNNMPTSNIALYQTARSANIHGPSSTSASKAFRKASAFSNNTAPSTSNNIGSNTPPAPLLPLPSLSQQNKPKIIERPTMHVTNSREILLGENLLDDTKAKNAPANSTTHDNGPVANDGLRIPNHSNADDNENNNKMKKNKNINSGKNERNDDTSKICTTSTKTAPSTAPLGSTDNTQALTASVSSSNADNHNNNKKKTSSNNNGNNSNSASNKTNADIKNSNADLSASTSNNNAINDDSHESNSEKPTKADFFAARLATAVGENEISDSEETFVYESAANSTKNLIFPDSSSQQQQQQQQPPKQQQQQQNHGITSKISAPLLNNNKKLLSRLKNSRHISTGAILNNTIATISTNPNLNSNVMQNNNNLMSGHNHLDELSSIKQEPPHQLQQQQPPMDVQSVDSYTSDNPDSNVIAKSPDKRSSLVSLSKVSPHLLSSTSSNGNTISCPNVATNSQELEPNNDISTKKSLSNSTLRHSSANRNSNYGDNKRPLRTTVSKIFDSNPNGAPLRRYSGVPDHVNLEDYIEQPHNYPTMQNSVKKDEFYNSRNNKFPHGLNFYGDNNVIEEENNGDSSNVNRPQHTNLQHEFIPEDNESDENDIHSMFYYNHKNDLETKPLISDYGEDEDVDDYDRPNATFNSYYGSASNTHELPLHGRMPSRSNNDYYDFMVGNNTGNNNQLNEYTPLRMKRGQRHLSRTNNSIMNGSIHMNGNDDVTHSNINNNDIVGYSPHNFYSRKSPFVKVKNFLYLAFVISSLLMTGFILGFLLATNKELQDVDVVVMDNVISSSDELIFDITVSAFNPGFFSISVSQVDLDIFAKSSYLKCDSNGDCTVMEQERKILQITTNLSLVEESANNDISGGNIETVLLGTAKKLETPLKFQGGAFNRNYDVSVSSVKLLSPGSREAKHENDDDDDDDGDDGDDENNTNERQYKSKPNARDDKEDDTKKWKLLIKHDYELIVRGSMKYEVPFFNTQKSTAIQKDSMVHPGKK	19.62	21.99	28.75	28.74	−1.17	13.16
YEL064C: yeast GST-HisX6 fusion protein on proteome chip (protein, UniProt P39981 1-480, looked up, GST-His6 tag, yeast GST-HisX6 fusion protein on proteome chip) Vacuolar amino acid …: MSELGEYSKLENKELRTEFELTNFPFPGTTDNDSDDGSQGQNSLNIITPDMDDTLVNDVLRENDKKSSMRMAFMNLANSILGAGIITQPFAIKNAGILGGLLSYVALGFIVDWTLRLIVINLTLAGKRTYQGTVEHVMGKKGKLLILFTNGLFAFGGCIGYCIIIGDTIPHVLRAIFSQNDGNVHFWLRRNVIIVMVTTFISFPLSMKRNIEALSKASFLAVISMIIIVLTVVIRGPMLPYDWKGHSLKLSDFFMKATIFRSLSVISFALVCHHNTSFIFFSMRNRSVAKFTRLTHISIIISVICCALMGYSGFAVFKEKTKGNVLNSFPGTDTAINIARLCFGFNMLTTFPMEIFVLRDVVGNLLHECNLIKNYDEHTQLSGKQHVVITSSLVFITMGISLTTCNLGALFELIGATTASTMAYILPPYTNLLLTSKKKSWKERLPFYLCICFGFMIMIISSTQTIIDAVNGSDGQHCQI	−3.14	6.53	−5.00	−3.92	5.28	−0.90
SDS22: yeast GST-HisX6 fusion protein on proteome chip (protein, UniProt P36047 1-338, looked up, GST-HisX6 tag, yeast GST-HisX6 fusion protein on proteome chip) Protein phosphatase 1 …: MDKNSVNKDSEEKDERHKIEVVDDTNPDFITADSELTQDLPDDVEVIDLVHLKIKSLEDLNLYRFKNLKQLCLRQNLIESISEVEVLPHDKIVDLDFYDNKIKHISSNVNKLTKLTSLDLSFNKIKHIKNLENLTDLENLYFVQNSISKIENLSTLKSLKNLELGGNKVHSIEPDSFEGLSNLEEIWLGKNSIPRLINLHPLKNLKILSIQSNKLKKIENLEELTNLEELYLSHNFITKIEGLEKNLKLTTLDVTSNKITSLENLNHLSNLTDIWASFNKIDQSFESLGENLSALSRLETIYLEGNPIQLENKTSYRRKLTMNLPPSLQKIDATYIRG	4.71	14.15	2.00	13.28	−4.70	−2.14
